According to paper PMC2174547 (The Journal of Cell Biology, 2000):
Several values for one entry are separate records, joined by “and”; a condition that tells them apart may be missing. Identical values can stand only once.

T1: 6xHis-PEX19 (human, UniProt P40855 1-299)
T1 sequence: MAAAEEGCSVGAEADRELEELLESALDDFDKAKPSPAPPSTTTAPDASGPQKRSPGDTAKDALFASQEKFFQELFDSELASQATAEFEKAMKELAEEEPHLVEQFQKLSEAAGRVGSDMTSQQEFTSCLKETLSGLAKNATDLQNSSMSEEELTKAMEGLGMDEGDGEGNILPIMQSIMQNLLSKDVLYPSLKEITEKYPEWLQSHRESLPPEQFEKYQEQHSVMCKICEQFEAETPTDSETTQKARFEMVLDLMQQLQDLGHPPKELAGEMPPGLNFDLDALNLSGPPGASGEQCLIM


What was measured:
[1] = target: 6xHis-PEX19 (human) (UniProt P40855); test: far-Western, overlay or dot blot
[2] = target: T1, 6xHis-PEX19; test: far-Western, overlay or dot blot

Row | IC50 [2] [nM] | Molecule | Kd [1]
1 |  | 6xHis-PEX14 (from UniProt O75381 1-377) (natural protein) | 350 nM and 800 nM and 500 nM
2 | 30000 | 6xHis-PEX14 amino acids 1–147 (domain or fragment) MASSEQAEQPSQPSSTPGSENVLPREPLIATAVKFLQNSRVRQSPLATRRAFLKKKGLTDEEIDMAFQQSGTAADEPSSLGPATQVVPVQPPHLISQPYSPAGSRWRDYGALAIIMAGIAFGFHQLYKKYLLPLILGGREDRKQLER | 
